Data taken from paper PMC2965851 (Chemistry & biology, 2008).

Biological target: the molecule itself
Test: crystal structure

B1: N-(His)10-tagged CalG3 (native) (enzyme, Micromonospora echinospora, UniProt Q8KND7 1-376, looked up)
chain: MLFVSSPGIGHLFPLIQLAWGFRTAGHDVLIAVAEHADRAAAAGLEVVDVAPDYSAVKVFEQVAKDNPRFAETVATRPAIDLEEWGVQIAAVNRPLVDGTMALVDDYRPDLVVYEQGATVGLLAADRAGVPAVQRNQSAWRTRGMHRSIASFLTDLMDKHQVSLPEPVATIESFPPSLLLEAEPEGWFMRWVPYGGGAVLGDRLPPVPARPEVAITMGTIELQAFGIGAVEPIIAAAGEVDADFVLALGDLDISPLGTLPRNVRAVGWTPLHTLLRTCTAVVHHGGGGTVMTAIDAGIPQLLAPDPRDQFQHTAREAVSRRGIGLVSTSDKVDADLLRRLIGDESLRTAAREVREEMVALPTPAETVRRIVERISG
- stoichiometry N: 2
